From article PMC7069705 come the findings set out here.

This series has as its target APC (full-length; APC-TMR when labeled) (Mus musculus, UniProt Q61315 1-2845). As to the kind of experiment: single-molecule TIRF-M co-diffusion on microtubules.

Sequence of APC (full-length; APC-TMR when labeled) (Q61315 whole entry, the tested form may be a part): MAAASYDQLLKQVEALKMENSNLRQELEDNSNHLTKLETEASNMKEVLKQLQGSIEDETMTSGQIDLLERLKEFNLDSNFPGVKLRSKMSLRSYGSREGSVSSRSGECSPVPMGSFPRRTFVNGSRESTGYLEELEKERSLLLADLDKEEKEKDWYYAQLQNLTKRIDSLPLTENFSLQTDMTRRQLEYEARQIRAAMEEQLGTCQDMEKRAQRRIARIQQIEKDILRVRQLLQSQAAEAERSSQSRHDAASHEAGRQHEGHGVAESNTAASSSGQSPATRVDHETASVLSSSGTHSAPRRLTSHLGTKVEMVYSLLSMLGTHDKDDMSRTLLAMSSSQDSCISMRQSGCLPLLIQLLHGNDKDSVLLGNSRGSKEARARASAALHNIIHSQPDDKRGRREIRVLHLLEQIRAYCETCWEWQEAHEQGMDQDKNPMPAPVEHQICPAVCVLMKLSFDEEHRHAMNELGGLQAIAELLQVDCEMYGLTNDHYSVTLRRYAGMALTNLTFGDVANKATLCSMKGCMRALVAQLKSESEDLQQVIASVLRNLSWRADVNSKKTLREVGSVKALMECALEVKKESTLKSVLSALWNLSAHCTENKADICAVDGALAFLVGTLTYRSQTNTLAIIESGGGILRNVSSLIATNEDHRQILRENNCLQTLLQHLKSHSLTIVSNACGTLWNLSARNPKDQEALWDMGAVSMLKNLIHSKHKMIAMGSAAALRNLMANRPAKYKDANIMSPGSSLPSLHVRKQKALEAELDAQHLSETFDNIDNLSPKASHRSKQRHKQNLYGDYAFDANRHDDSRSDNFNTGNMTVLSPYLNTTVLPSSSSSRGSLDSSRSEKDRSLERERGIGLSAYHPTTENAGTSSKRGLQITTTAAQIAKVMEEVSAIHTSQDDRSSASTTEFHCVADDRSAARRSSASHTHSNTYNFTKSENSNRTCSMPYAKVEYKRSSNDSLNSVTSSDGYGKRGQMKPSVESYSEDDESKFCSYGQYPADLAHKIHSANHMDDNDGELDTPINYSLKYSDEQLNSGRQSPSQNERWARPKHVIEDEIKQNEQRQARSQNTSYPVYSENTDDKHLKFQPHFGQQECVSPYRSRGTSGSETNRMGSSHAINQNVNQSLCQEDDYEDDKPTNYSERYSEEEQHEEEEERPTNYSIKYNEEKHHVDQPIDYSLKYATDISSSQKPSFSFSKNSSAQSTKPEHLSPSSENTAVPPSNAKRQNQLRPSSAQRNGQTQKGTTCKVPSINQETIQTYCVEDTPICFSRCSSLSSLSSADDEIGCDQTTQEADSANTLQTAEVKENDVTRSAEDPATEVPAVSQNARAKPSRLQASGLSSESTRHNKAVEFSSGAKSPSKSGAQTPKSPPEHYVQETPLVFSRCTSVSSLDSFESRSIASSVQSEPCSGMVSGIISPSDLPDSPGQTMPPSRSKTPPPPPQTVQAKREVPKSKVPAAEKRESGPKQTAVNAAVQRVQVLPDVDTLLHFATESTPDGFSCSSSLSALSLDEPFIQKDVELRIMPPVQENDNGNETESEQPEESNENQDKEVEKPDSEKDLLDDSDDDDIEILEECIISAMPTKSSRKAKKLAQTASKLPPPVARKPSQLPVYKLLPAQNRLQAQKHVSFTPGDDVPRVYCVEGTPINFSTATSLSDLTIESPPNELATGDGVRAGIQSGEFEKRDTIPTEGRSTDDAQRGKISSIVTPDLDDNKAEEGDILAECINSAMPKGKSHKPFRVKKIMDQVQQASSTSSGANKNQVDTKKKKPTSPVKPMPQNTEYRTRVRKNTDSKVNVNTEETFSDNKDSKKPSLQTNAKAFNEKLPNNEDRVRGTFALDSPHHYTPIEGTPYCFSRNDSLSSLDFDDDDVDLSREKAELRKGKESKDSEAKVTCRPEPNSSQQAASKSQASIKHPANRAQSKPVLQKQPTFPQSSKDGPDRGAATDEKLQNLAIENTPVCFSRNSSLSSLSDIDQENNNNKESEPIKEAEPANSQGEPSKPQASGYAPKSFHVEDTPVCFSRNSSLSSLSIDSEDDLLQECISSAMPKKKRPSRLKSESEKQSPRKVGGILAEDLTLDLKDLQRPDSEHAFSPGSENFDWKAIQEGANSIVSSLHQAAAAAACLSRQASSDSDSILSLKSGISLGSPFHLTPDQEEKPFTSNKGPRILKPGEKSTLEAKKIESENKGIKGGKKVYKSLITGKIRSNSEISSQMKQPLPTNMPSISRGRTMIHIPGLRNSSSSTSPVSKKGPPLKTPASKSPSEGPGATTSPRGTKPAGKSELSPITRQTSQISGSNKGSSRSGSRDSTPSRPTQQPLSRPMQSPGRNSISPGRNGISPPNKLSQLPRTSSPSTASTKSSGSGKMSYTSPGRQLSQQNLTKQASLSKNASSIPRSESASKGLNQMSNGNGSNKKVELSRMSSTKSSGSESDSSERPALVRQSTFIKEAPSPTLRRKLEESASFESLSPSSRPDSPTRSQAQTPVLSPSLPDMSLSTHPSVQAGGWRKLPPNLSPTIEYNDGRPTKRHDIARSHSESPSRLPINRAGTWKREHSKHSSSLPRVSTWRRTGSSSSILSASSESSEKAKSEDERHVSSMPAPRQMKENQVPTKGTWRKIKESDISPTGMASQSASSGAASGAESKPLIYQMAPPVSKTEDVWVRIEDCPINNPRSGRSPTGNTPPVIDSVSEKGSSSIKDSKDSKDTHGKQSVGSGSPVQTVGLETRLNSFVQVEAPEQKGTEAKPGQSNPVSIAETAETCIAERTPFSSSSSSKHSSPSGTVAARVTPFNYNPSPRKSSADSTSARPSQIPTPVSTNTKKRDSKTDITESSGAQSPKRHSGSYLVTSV

B1: β2Btubwt (ssRNA)
RNA: GUUCCCCAGGCCAAGCAGGUUAGGGAAAGCUGAGAUGAAAGGAGGGGGUGGGGGGGCUUAAUCUGUGAAAAUACCUUGGCAGUUGAA
For B1, the binding result is “binds”.
